Biological target: recombinant MnSOD-WT (manganese superoxide dismutase, wild type) (UniProt P04179)
Assay: SEC; Superdex 200 Increase 10/300 GL, 50 mM potassium phosphate pH 7.8; size from a calibration curve of gel filtration standards

stoichiometry N: 4
Substance: recombinant MnSOD-WT (manganese superoxide dismutase, wild type) (from UniProt P04179 25-222) (enzyme)
